Results from the supplement of paper PMC9170038.

How the values were obtained:
MS2 coat protein [1] = assay: apparent KD of MS2 coat protein, switch ON state; designed switch direction (-1 OFF switch, 1 ON switch): -1; higher = weaker reporter binding; settings: FMN input: 0 or 200 uM; Eterna round: R93 (includes R88 designs)
How it was run: (§1)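 Titration buffer: 100 mM Tris-HCl pH 7.5, 80 mM KCl, 4 mM MgCl2, without or with constant ligand. Designed RNA switches transcribed on-chip from Illumina sequencing clusters received SNAP-549-labelled MS2 coat protein in twofold steps from 0.7 or 1.5 nM to 3 µM. Apparent KD is the median per design of fits to normalised cluster binding curves.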

MS2 coat protein [2] = assay: apparent KD of MS2 coat protein, switch OFF state (with FMN for OFF switches, without FMN for ON switches); designed switch direction (-1 OFF switch, 1 ON switch): -1; higher = weaker reporter binding; settings: FMN input: 0 or 200 uM; Eterna round: R93 (includes R88 designs)
How it was run: as §1

Sequence | apparent KD of MS2 coat protein (MS2 coat protein [1]) [nM] | apparent KD of MS2 coat protein (MS2 coat protein [2]) [nM]
AACAGUACAGGAUAUACAUGAGGAUCACCCAUGUAAAAAUAAAAGGGCGUACCACAAAGUAGAAGGGUACUGGA [Moding Maslow revisited (73) 12] | 44.7 | 34
AAAAAUGGAGGAUAUACAUGAGGAUCACCCAUGUGUAUAAAAAAAUACACAAAAGAAAGUAGAAGGCCAUAAAA [Ex 3 Ice] | 35 | 94.3
AAGAACAAAGGAUAUACAAGGAAGAAAGAAAAGAAAAGAAAACAUGAGGAUCACCCAUGUAGAAGGUUGUAGAA [EteRNA is fun!] | 24.7 | 20.7
AACAAGUCAGGAUAUCCGAAAAGUAAAUAAGUAAAACAAAAGGAGAAGGGACAUGAGGAUCACCCAUGUAAAUA [JR_Exc004_Sub015] | 48.1 | 27.2
CAGAGACAUGAGGAUCACCCAUGUUAGGAUAUGCGUGUAUGCUAAAAAAAGUUAACAAGCAGAAGGAACAGAGG [JR_Exc001_Sub309] | 24.3 | 64.2
AACAAGUGAGGAUAUCGGAAAUGUAAAUAAGUUUCACAAAACGAGAAGGCACAUGAGGAUCACCCAUGUAAAUA [JR_Exc004_Sub013] | 32.1 | 25.6
CAGGUAUGAGGAUAUACAUAGAUACAGACACAUGUUCAAGUACAUGAGGAUCACCCAUGUAGAAGGCAUAUAUG [Mat - Same state - Mayanna Mod - D106] | 22.3 | 35.1
AAGAUGUAAGGAUAUGCUGCUCGUCACAAAAGUGAUGAGUAGCAGAAGGUACAUGAGGAUCACCCAUGUAAAGA [JL eternac mod 10] | 31.5 | 44
AACAGGACAGGAUAUACAUGAGGAUCACCCAUGUGAGAAUUAAGUGGCGUACCACAAAGUAGAAGGGUCCUGGA [Mat - Exclusion 3 - JL mod - D40] | 44.5 | 216
AACAGUACAGGAUAUACAUGAGGAUCACCCAUGUGAGAAUUAAGUGGAGGACCACAAAGUAGAAGGGUACUGAA [Mat - Exclusion 3 - JL mod - D9] | 56.9 | 109
AGUUGGCGAGGAUAUACAUGAGGAUCACCCAUGUGGAAGAAAAAAGUGAGAAAGAAAAGUAGAAGGCGCUGACA [Mat - Exclusion 3 - Lego mod - D87] | 67.5 | 316
GGAUGUCAAGGAUAUACAUGAGGAUCACCCAUGUGAGAGAAAAAAGUGAGAAAGAAAAGUAGAAGGUGGUGUCG [salish99-ex3-87] | 38.5 | 56.1
AAAGGACUAGGAUAUACAUGAGGAUCACCCAUGUAAAAAACAUAAUAAAAGAACUUAUGUAGAAGGAGUCCAAA [69%, Moding Meechl, 9] | 31.7 | 93.7
AAAGUGUGAGGAUAUGUCAAAGGACACGAAAGUGACAAAGGACAGAAGGUACAUGAGGAUCACCCAUGUAAAAA [milkweed 18] | 27.3 | 20.6
AGCUAGUCAGGAUAUACGAACAUGUCACAAGACGUGAAGGGACAUGAGGAUCACCCAUGUAGAAGGGACUAGCA [74%, Web mod - With 1 more C's] | 52.9 | 203
AAAAAACAUGAGGAUCACCCAUGUCAGGAUAUCCGGUUCUUGAAAAAAAAGAGGCGUUGGAGAAGGGACAUUCC [Chica Displaced 13 - Jieux - Exclusion 1] | 25 | 38.7
AAAAAGGGAGGAUAUGCAAAAAAAAAAAAAAAAAAAAAAAAACAUGAGGAUCACCCAUGUAGAAGGCCCAAAAA [Dora Baggins - Jieux - Exclusion 2] | 32.4 | 34.4
AUAAAACAUGAGGAUCACCCAUGUGAGGAUAUCUGAAAAAAAAAAAGAAAAAAAAAAAAGAGAAGGCACAAUAA [Amethyst 44] | 65.1 | 79.4
AAAACGUGAGGAUAUGCACCAAAAAAGGUAAAUCGGGUACGACAUGAGGAUCACCCAUGUAGAAGGCACGAAAA [Frodo Flailing 11 - Jieux - Exclusion 2] | 28.2 | 42.9
AGAAAGUCAGGAUAUACGAAAGUGCGAAAGCACACAAGGGAACAUGAGGAUCACCCAUGUAGAAGGGACAAGAA [Diamond 78] | 70.9 | 91.7
AAAACACAUGAGGAUCACCCAUGUUAGGAUAUCCACGCUACUAAUCCUAAACAAAGCGGGAGAAGGAACGUGGC [Xerereonan] | 20.9 | 17.5
AGGAAACAUGAGGAUCACCCAUGUCAGGAUAUUUGAAAGAAAAGAAAAGAAAGAAGAAGAAGAAGGGACAAGAA [Narmer] | 27.6 | 31.1

Sequence | apparent KD of MS2 coat protein (MS2 coat protein [1]) [nM] | apparent KD of MS2 coat protein (MS2 coat protein [2]) [nM]
AACAUGUAAGGAUAUUGAAGAAAAGAAAAGAAAGAAAAGAACAAGAAGGUACAUGAGGAUCACCCAUGUAAGAA [EteRNA is fun!] | 33.7 | 18.6
AAAAAACAUGAGGAUCACCCAUGUGAGGAUAUGCUGCGAAUAAAGAAAGAAGAAAGCAGCAGAAGGCACACCAA [Amethyst 77] | 26.5 | 45.6
AAAAAACAUGAGGAUCACCCAUGUGAGGAUAUGUAUAUCCCUAAAAAAGUGUGGGACUACAGAAGGCACUUGGA [Atanri] | 43.3 | 122
AAGGGACAUGAGGAUCACCCAUGUGAGGAUAUGACGUAAAUAAAGAAAGAAGAAAUCGUCAGAAGGCACACCAA [55%, Disencluded 2, 3] | 67 | 117
CUCAAGUUAGGAUAUACAAGAAAAGAAGAGAAAGAAAAGAAGUAGAAGGAACAUGAGGAUCACCCAUGUAAGAA [EteRNA is fun!] | 33.2 | 25.7
ACUGAUACAGGAUAUACGUGAGUGGAAAAAGUGUUUCCACUACAUGAGGAUCACCCAUGUAGAAGGGUAUCAGA [Ex2 Design 180: Random 6] | 77.4 | 91.5
ACUGAUACAGGAUAUACAUGAGUGAAAAAAGUAAAUCCACUACAUGAGGAUCACCCAUGUAGAAGGGUAUCAGA [Ex2 Design 179: Random 5B] | 52.1 | 42.7
AAGAAGAGAGGAUAUACAAAAUAAAAGAAAAGAAAGAAAGAACAUGAGGAUCACCCAUGUAGAAGGCUCAAGAA [Hotepibre Qemau Siharnedjheritef] | 25.6 | 28.4
AAAAAGUCAGGAUAUCGGAAAAUAAAAAUAAAAAAAAAAAACGAGAAGGGACAUGAGGAUCACCCAUGUAUGAC [Mat - Exclusion 4 - Mayanna - D113] | 45.2 | 39
CUCAUGUCAGGAUAUGUCAAAAGUCACAAAAGUGACAAAAGACAGAAGGGACAUGAGGAUCACCCAUGUAAAAA [Starry Exclusion 4.6 (starryjess round 1 mod)] | 20.6 | 15.5
AAAGGACAUGAGGAUCACCCAUGUGAGGAUAUCGGAAAAGGAAAAAUAAAAAAGAAGACGAGAAGGCACACCAA [Mat - Exclusion 1 - Eli mod - D76] | 80.6 | 59.8
AAACGUUGAGGAUAUACAGAAGGGUAUAAAUCAAAAAAAACACAUGAGGAUCACCCAUGUAGAAGGCAACGAAA | 98.9 | 50.4
AAAAAGUGAGGAUAUGCGCUGUCAUGUAGACACGAGCAGUCGUAGAAGGCACAUGAGGAUCACCCAUGUUUAAA [EX4 Malc#24] | 31.9 | 20
AGAACGUCAGGAUAUCGAACAACAAGUAAAUAGAGAAGAAGCGAGAAGGGACAUGAGGAUCACCCAUGUAAGAA [e4-3] | 62.5 | 48.9
AAGGGACAUGAGGAUCACCCAUGUAAGGAUAUCGGAAAAGGAAAAAAAAAAAAGAAGACGAGAAGGUACAAAAA | 122 | 71.6
AAGAACAGAGGAUAUACAUGAGGAUCACCCAUGUAAAAGAAAGAGGGAAAAGAGAAAAGUAGAAGGCUGAAGAA [Arsinoe III] | 26.9 | 31
AACAAACAUGAGGAUCACCCAUGUGAGGAUAUCGGAUGUACAGCGCAAUUAGAAUUAACGAGAAGGCACACUUA [Ex1_Neo] | 22.7 | 22.6
AAGAAACGAGGAUAUACAUGAGGAUCACCCAUGUAAAAGAAAGAAAAGGGAAAGAAAAGUAGAAGGCGUAAGAA [Usermaatre-sekheperenre Ramesses V] | 30.4 | 37
AAGAAGUGAGGAUAUCGUUGUCGUCACAAAAGUGAUGACGACGAGAAGGCACAUGAGGAUCACCCAUGUAAAGA [Opal 28] | 37.8 | 43
CCUAAGAAAGGAUAUACACCGGUGAACCGCUGAAAUCAGCAACAUGAGGAUCACCCAUGUAGAAGGUUUAUGGG [Erusqu] | 237 | 133
AACUGACAUGAGGAUCACCCAUGUCAGGAUAUGACAUCGAAAAAUAAAUAAAUCGUUGUCAGAAGGGACAUGGA [Design 74: Sub-opt RB] | 25.1 | 38
AAGAGUAGAGGAUAUAUAUGAAAAGAGUCGAAAGACUCAAAACAUGAGGAUCACCCAUGUAGAAGGCUACUCAA [Hyphema Seclusion mod] | 18.7 | 17.5
